Measured values from patent publication US8993717B2, “Gadd45beta targeting agents” (Imperial Innovations Limited, priority 2009, dated 2015).
Read-outs that look alike come from different tables or passages of the source. Square brackets hold non-standard residues; d marks the D form. Peptide text beside a SMILES is read from it. * marks the point of attachment. Benzoyl(3-OH,4-OMe) = COc1ccc(C(=O)*)cc1O; ClZ = O=C(OCc1ccccc1Cl)*; Cbz = O=C(OCc1ccccc1)*

Target: T1, Gadd45β/MKK7 interaction (Homo sapiens, UniProt O14733)
T1 construct: The GST-fused full-length kinase was coated for 16 h at 4° C., at a concentration of 42 nM; made in house
T1 sequence (O14733 1-419): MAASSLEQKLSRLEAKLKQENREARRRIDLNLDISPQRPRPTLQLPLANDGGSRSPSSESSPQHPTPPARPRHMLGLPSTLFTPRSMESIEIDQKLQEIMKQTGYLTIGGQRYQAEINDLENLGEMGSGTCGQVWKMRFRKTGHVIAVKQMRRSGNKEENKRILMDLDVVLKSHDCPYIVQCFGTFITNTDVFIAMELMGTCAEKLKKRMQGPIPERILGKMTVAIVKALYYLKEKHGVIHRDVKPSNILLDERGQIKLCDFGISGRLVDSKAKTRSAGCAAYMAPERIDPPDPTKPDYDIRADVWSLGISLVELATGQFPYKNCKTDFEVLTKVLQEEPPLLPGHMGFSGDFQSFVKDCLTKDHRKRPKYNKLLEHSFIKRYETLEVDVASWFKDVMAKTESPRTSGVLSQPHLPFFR
Assay: ELISA competition assay of biotin-hGadd45β binding to coated GST-MKK7
Details: for inhibition of Gadd45β/MKK7 complex formation in ELISA competition assays: result in words
Method: To evaluate the inhibitory properties of peptides, ELISA-based assays were performed. In these assays, a fusion protein of glutathione S-transferase (GST) and mitogen-activated protein kinase kinase 7 (MKK7) was coated onto wells of a 96-well plate, while biotinylated-hGadd45β was used in solution. hGadd45β was biotinylated using an EZ Link NHS-LC-biotin kit (Pierce, Rockford, Ill.), according to Tornatore et al. (Tornatore L., et al. (2008). J Mol Biol; 378:97-111).
Firstly, the association between Gadd45β and MKK7 was investigated by ELISA assays as also reported in Tornatore et al. (Tornatore L., et al. (2008). J Mol Biol; 378:97-111). The GST-fused full-length kinase was coated for 16 h at 4° C., at a concentration of 42 nM in buffer A (25 mM Tris pH 7.5, 150 mM NaCl, 1 mM DTT and 1 mM EDTA) into wells of a 96-well microliter plate. Some wells were filled with buffer alone and were used as blanks. After incubation for 16 h at 4° C., the solutions were removed and the wells were filled with 350 μL of a 1% (w/v) solution of NFDM (Non Fat Dry Milk) in PBS (phosphate buffered saline). The plate was incubated for 1 h at 37° C. in the dark. After washing with buffer T-PBS (PBS with 0.004% (v/v) Tween detergent), the wells were filled with 100 μL of biotinylated-hGadd45β at concentrations ranging from 8.4 nM to 168 nM. Each data point was performed in triplicate. Following incubation for 1 hr in the dark at 37° C. the solutions were removed and the wells were again washed with T-PBS. Then 100 μL of a 1:10,000 dilution of horseradish peroxidase-conjugated streptavidin dissolved in buffer was added to each well and the plate incubated for 1 hr at 37° C. in the dark. After removal of the enzyme solution and washing, 100 μL of the chromogenic substrate o-phenylendiamine (0.4 mg/mL in 50 mM sodium phosphate-citrate buffer, containing 0.4 mg/mL of urea in hydrogen peroxide) was added and the colour was allowed to develop in the dark for 5 min. The reaction was stopped by adding 50 μL of 2.5 M H2SO4. The absorbance at 490 nm was measured in all wells and the values were averaged after subtracting the corresponding blanks. Bound protein was then detected as described above. The molar concentration of biotinylated-hGadd45β at which the half-maximal ELISA signal is detected corresponds to the dissociation constant (KD) (Friguet B, Chaffotte A F, Djavadi-Ohaniance L, Goldberg M E. J Immunol Methods. 1985 Mar. 18; 77 (2):305-19). Binding competition assays were performed by coating GST-MKK7 at 42 nM as described, a concentration of biotinylated-hGadd45β of 21 nM (pre-saturation conditions 1:0.5 mol/mol ratio) and, in a first test, using competitors at 21 nM. The binding of biotinylated hGadd45β to GST-MKK7 was analyzed in the presence of increasing amounts of competitor peptide (concentrations ranging from 0.01 nM to 100 nM), and the values obtained with the competitor were expressed as the percentage of the binding detected in the absence of competitor. […] According to the convention adopted in the table “L-Xaa” and “D-Xaa” refer to the L and D forms of amino acid Xaa.
A simplified combinatorial peptide library (Marasco et al. 2008, Curr. Protein Pept. Sci. 9:447-67) was screened for antagonists of the Gadd45β/MKK7 interaction. This library contained a total of 12^4=20,736 different tetrapeptides formed by combinations of the following amino acid residues Gln (Q), Ser (S), Arg (R), Ala (A), Tyr (Y), Pro (P), Met (M), Cys (C), Phe (F), Leu (L), His (H), Asp (D), and was iteratively deconvoluted in four steps by ELISA competition assays using at each step coated MKK7 (42 nM), soluble-biotin-hGadd45β (21 nM) and each of the 12 sub-libraries (42 nM).

[1] = Table V, FIG. 3C, read-out: IC50 ELISA
[2] = Table VI, compounds 0.01-100 nM, read-out: IC50 Elisa
[3] = Table II, modified pure peptides

| % Inhibition of Gadd45β-MKK7 binding (Table III, modified peptides) [%] | % Inhibition of Gadd45β-MKK7 binding [3] [%] | Molecule | also measured |
| --- | --- | --- | --- |
| 38 | – | 2CI-Z-YDHF-NH2 (ClZ-YDHF-NH2) | – |
| 86 | – | 3-OH—4MeO-Benzoid acid-YERF-NH2 ({Benzoyl(3-OH,4-OMe)}-YERF-NH2) | – |
| 7 | – | Ac-AERF-NH2 | – |
| 24 | – | Ac-PERF-NH2 | – |
| – | 28 | Ac-WDHF-NH2 | – |
| – | 50 | Ac-WDHW-NH2 | – |
| – | 69 | Ac-WDKW-NH2 | – |
| – | 93 | Ac-WDRW-NH2 | – |
| – | 36 | Ac-WEHF-NH2 | – |
| – | 75 | Ac-WEHW-NH2 | – |
| – | 94 | Ac-YDHF-NH2 | inhibition of Gadd45β/MKK7 complex formation in ELISA competition assays: IC50s similar to those of DTPs |
| – | 99 | Ac-YDHQ-NH2 | – |

Second part, the molecule before the results:

| Molecule | % Inhibition of Gadd45β-MKK7 binding (Table III, modified peptides) [%] | % Inhibition of Gadd45β-MKK7 binding [3] [%] | also measured |
| --- | --- | --- | --- |
| 2CI-Z-YDHQ-NH2 (ClZ-YDHQ-NH2) | 40 | – | – |
| 2CI-Z-YERF-NH2 (ClZ-YERF-NH2) | 38 | – | – |
| 3-OH—4MeO-Benzoid acid-YDHF-NH2 ({Benzoyl(3-OH,4-OMe)}-YDHF-NH2) | 81 | – | – |
| 3-OH—4MeO-Benzoid acid-YDHQ-NH2 ({Benzoyl(3-OH,4-OMe)}-YDHQ-NH2) | 7 | – | – |
| N=C(N)NCCC[C@@H](NC(=O)[C@@H](Cc1ccc(O)cc1)NC(=O)OCc1ccccc1)C(=O)N[C@H](Cc1ccccc1)C(N)=O [Compound 19, Z-Tyr-Arg-Phe-NH2] (Cbz-[dY]-[dR]-[dF]-NH2) | – | – | IC50 (read-out: IC50s in vitro): 0.1 nM |
| CC(=O)N[C@H](CC1CCCCC1)C(=O)N[C@H](CCCNC(=N)N)C(=O)N[C@H](Cc1ccccc1)C(N)=O [Compound 20, Ac-Cha-Arg-Phe-NH2] | – | – | IC50 [1]: > 5 nM; inhibition of Gadd45β/MKK7 complex formation in ELISA competition assays: inactive |
| N=C(N)NCCC[C@@H](NC(=O)[C@@H](CCC(=O)O)NC(=O)[C@@H](Cc1ccc(O)cc1)NC(=O)[C@@H](Cc1ccc(O)cc1)NC(=O)OCc1ccccc1)C(=O)N[C@H](Cc1ccccc1)C(N)=O [Compound 22, Z-Tyr-Tyr-Glu-Arg-Phe-NH2] (Cbz-[dY][dY][dE][dR][dF]-NH2) | – | – | IC50 [1]: > 5 nM |
| NC(=O)CC[C@@H](NC(=O)[C@@H](Cc1c[nH]cn1)NC(=O)[C@@H](CC(=O)O)NC(=O)[C@@H](Cc1ccc(O)cc1)NC(=O)OCc1ccccc1)C(N)=O [Compound 32, Z-Tyr-Asp-His-Gln-NH2] (Cbz-[dY][dD][dH][dQ]-NH2) | – | – | IC50 [1]: > 10 nM |
| NC(=O)CC[C@@H](NC(=O)[C@@H](Cc1c[nH]cn1)NC(=O)[C@@H](CC(=O)O)NC(=O)[C@@H](Cc1ccc(O)cc1)NC(=O)[C@@H](Cc1ccc(O)cc1)NC(=O)OCc1ccccc1)C(N)=O [Compound 33, Z-Tyr-Tyr-Asp-His Gln-NH2] (Cbz-[dY][dY][dD][dH][dQ]-NH2) | – | – | IC50 [1]: > 10 nM |
| CC(=O)NC(Cc1ccc(O)cc1)C(=O)NC(Cc1ccccc1)C(N)=O (stereo not drawn) [Compound A1, Ac-YF-NH2] (Ac-Tyr-Phe-NH2; configuration not given here) | – | – | IC50 [2]: > 100 nM |
| CC(=O)NC(Cc1ccccc1)C(=O)NC(CCCNC(=N)N)C(=O)NC(Cc1ccc(O)cc1)C(N)=O (stereo not drawn) [Compound O1, Ac-FRY-NH2] (Ac-Phe-Arg-Tyr-NH2; configuration not given here) | – | – | IC50 [2]: > 100 nM |
| Ac-WDKF-NH2 | – | 26 | – |
| Ac-WDRF-NH2 | – | 46 | – |
| Ac-WEKF-NH2 | – | 65 | – |
| Ac-WEKW-NH2 | – | 65 | – |
| Ac-WERF-NH2 | – | 29 | – |
| Ac-WERW-NH2 | – | 69 | – |
| Ac-YARF-NH2 | 17 | – | – |
| Ac-YDHFLys(Z)-NH2 (Ac-YDHFK(Cbz)-NH2; SMILES CC(=O)N[C@@H](Cc1ccc(O)cc1)C(=O)N[C@@H](CC(=O)O)C(=O)N[C@@H](Cc1c[nH]cn1)C(=O)N[C@@H](Cc1ccccc1)C(=O)N[C@@H](CCCCNC(=O)OCc1ccccc1)C(N)=O) | 8 | – | – |
